Results: the supplement of paper PMC11316812
± gives the standard deviation of the averaged measurements.

Experiments:
MCF7 = assay: percentage of EdU-negative (G0-arrested) nuclei per well, 72 h; higher = more G0 arrest; conditions: reference: sequence is the full UniProt precursor, the tested protein was the secreted form or ectodomain
hTERT-HMEC = assay: as above; conditions: reference: sequence is the full UniProt precursor, the tested protein was the secreted form or ectodomain
[1] = protein concentration 0.0251975 µM
[2] = protein concentration 0.251975 µM
[3] = protein concentration 0.0225 µM
[4] = protein concentration 0.0131429 µM
[5] = protein concentration 0.131429 µM
[6] = protein concentration 0.028295 µM
[7] = protein concentration 0.28295 µM
[8] = protein concentration 0.0257143 µM
[9] = protein concentration 0.257143 µM
[10] = protein concentration 0.0357143 µM
[11] = protein concentration 0.357143 µM
[12] = protein concentration 0.023905 µM
[13] = protein concentration 0.23905 µM
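Note: secreted proteins added to cultured cells, EdU pulse at the end, nuclei found by Hoechst imaging, EdU status from nuclear versus surrounding ring intensity ratio, PBS as neutral control.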

Sequence: MAPLKMLALVTLLLGASLQHIHAARGTNVGRECCLEYFKGAIPLRKLKTWYQTSEDCSRDAIVFVTVQGRAICSDPNNKRVKNAVKYLQSLERS
- percentage of EdU-negative (MCF7; [1]): 26 ± 0.51%
- percentage of EdU-negative (MCF7; [2]): 25.9 ± 0.28%
- percentage of EdU-negative (hTERT-HMEC; [1]): 5.05 ± 1.6%
- percentage of EdU-negative (hTERT-HMEC; [2]): 5.85 ± 0.93%

Sequence: MAPLRPLLILALLAWVALADQESCKGRCTEGFNVDKKCQCDELCSYYQSCCTDYTAECKPQVTRGDVFTMPEDEYTVYDDGEEKNNATVHEQVGGPSLTSDLQAQSKGNPEQTPVLKPEEEAPAPEVGASKPEGIDSRPETLHPGRPQPPAEEELCSGKPFDAFTDLKNGSLFAFRGQYCYELDEKAVRPGYPKLIRDVWGIEGPIDAAFTRINCQGKTYLFKGSQYWRFEDGVLDPDYPRNISDGFDGIPDNVDAALALPAHSYSGRERVYFFKGKQYWEYQFQHQPSQEECEGSSLSAVFEHFAMMQRDSWEDIFELLFWGRTSAGTRQPQFISRDWHGVPGQVDAAMAGRIYISGMAPRPSLAKKQRFRHRNRKGYRSQRGHSRGRNQNSRRPSRATWLSLFSSEESNLGANNYDDYRMDWLVPATCEPIQSVFFFSGDKYYRVNLRTRRVDTVDPPYPRSIAQYWLGCPAPGHL
- percentage of EdU-negative (MCF7; [3]): 25.1 ± 3.1%
- percentage of EdU-negative (MCF7; protein concentration 0.225 µM): 31.11 ± 0.19%
- percentage of EdU-negative (hTERT-HMEC; [3]): 5.37 ± 0.14%
- percentage of EdU-negative (hTERT-HMEC; protein concentration 0.225 µM): 4.7 ± 1.1%

Sequence: MAPPLRPLARLRPPGMLLRALLLLLLLSPLPGVWCFSELSFVKEPQDVTVTRKDPVVLDCQAHGEVPIKVTWLKNGAKMSENKRIEVLSNGSLYISEVEGRRGEQSDEGFYQCLAMNKYGAILSQKAHLALSTISAFEVQPISTEVHEGGVARFACKISSHPPAVITWEFNRTTLPMTMDRITALPTGVLQIYDVSQRDSGNYRCIAATVAHRRKSMEASLTVIPAKESKSFHTPTIIAGPQNITTSLHQTVVLECMATGNPKPIISWSRLDHKSIDVFNTRVLGNGNLMISDVRLQHAGVYVCRATTPGTRNFTVAMATLTVLAPPSFVEWPESLTRPRAGTARFVCQAEGIPSPKMSWLKNGRKIHSNGRIKMYNSKLVINQIIPEDDAIYQCMAENSQGSILSRARLTVVMSEDRPSAPYNVHAETMSSSAILLAWERPLYNSDKVIAYSVHYMKAEGLNNEEYQVVIGNDTTHYIIDDLEPASNYTFYIVAYMPMGASQMSDHVTQNTLEDVPLRPPEISLTSRSPTDILISWLPIPAKYRRGQVVLYRLSFRLSTENSIQVLELPGTTHEYLLEGLKPDSVYLVRITAATRVGLGESSVWTSHRTPKATSVKAPKSPELHLEPLNCTTISVRWQQDVEDTAAIQGYKLYYKEEGQQENGPIFLDTKDLLYTLSGLDPRRKYHVRLLAYNNIDDGYQADQTVSTPGCVSVRDRMVPPPPPPHHLYAKANTSSSIFLHWRRPAFTAAQIINYTIRCNPVGLQNASLVLYLQTSETHMLVQGLEPNTKYEFAVRLHVDQLSSPWSPVVYHSTLPEAPAGPPVGVKVTLIEDDTALVSWKPPDGPETVVTRYTILYASRKAWIAGEWQVLHREGAITMALLENLVAGNVYIVKISASNEVGEGPFSNSVELAVLPKETSESNQRPKRLDSADAKVYSGYYHLDQKSMTGIAVGVGIALTCILICVLILIYRSKARKSSASKTAQNGTQQLPRTSASLASGNEVGKNLEGAVGNEESLMPMIMPNSFIDAKGGTDLIINSYGPIIKNNSKKKWFFFQDSKKIQVEQPQRRFTPAVCFYQPGTTVLISDEDSPSSPGQTTSFSRPFGVAADTEHSANSEGSHETGDSGRFSHESNDEIHLSSVISTTPPNL [Q2VWP7]
- percentage of EdU-negative (MCF7; [4]): 25.8 ± 0.61%
- percentage of EdU-negative (MCF7; [5]): 25.2 ± 1.5%
- percentage of EdU-negative (hTERT-HMEC; [4]): 4.73 ± 0.2%
- percentage of EdU-negative (hTERT-HMEC; [5]): 5.16 ± 0.39%

Sequence: MAPPQVLAFGLLLAAATATFAAAQEECVCENYKLAVNCFVNNNRQCQCTSVGAQNTVICSKLAAKCLVMKAEMNGSKLGRRAKPEGALQNNDGLYDPDCDESGLFKAKQCNGTSMCWCVNTAGVRRTDKDTEITCSERVRTYWIIIELKHKAREKPYDSKSLRTALQKEITTRYQLDPKFITSILYENNVITIDLVQNSSQKTQNDVDIADVAYYFEKDVKGESLFHSKKMDLTVNGEQLDLDPGQTLIYYVDEKAPEFSMQGLKAGVIAVIVVVVIAVVAGIVVLVISRKKRMAKYEKAEIKEMGEMHRELNA
- percentage of EdU-negative (MCF7; [6]): 26.6 ± 1.3%
- percentage of EdU-negative (MCF7; [7]): 26.1 ± 0.38%
- percentage of EdU-negative (hTERT-HMEC; [6]): 4.24 ± 0.27%
- percentage of EdU-negative (hTERT-HMEC; [7]): 7.81 ± 1.4%

Sequence: MAPPSVPLVLLLVLLLSLAETPASAPAHRGRGGWTLNSAGYLLGPVLHLPQMGDQDGKRETALEILDLWKAIDGLPYSHPPQPSKRNVMETFAKPEIGDLGMLSMKIPKEEDVLKS [Q9UBC7]
- percentage of EdU-negative (MCF7; [8]): 25.7 ± 2.2%
- percentage of EdU-negative (MCF7; [9]): 27.5 ± 3%
- percentage of EdU-negative (hTERT-HMEC; [8]): 5.31 ± 1.9%
- percentage of EdU-negative (hTERT-HMEC; [9]): 6.11 ± 0.2%

Sequence: MAPRARRRRPLFALLLLCALLARLQVALQIAPPCTSEKHYEHLGRCCNKCEPGKYMSSKCTTTSDSVCLPCGPDEYLDSWNEEDKCLLHKVCDTGKALVAVVAGNSTTPRRCACTAGYHWSQDCECCRRNTECAPGLGAQHPLQLNKDTVCKPCLAGYFSDAFSSTDKCRPWTNCTFLGKRVEHHGTEKSDAVCSSSLPARKPPNEPHVYLPGLIILLLFASVALVAAIIFGVCYRKKGKALTANLWHWINEACGRLSGDKESSGDSCVSTHTANFGQQGACEGVLLLTLEEKTFPEDMCYPDQGGVCQGTCVGGGPYAQGEDARMLSLVSKTEIEEDSFRQMPTEDEYMDRPSQPTDQLLFLTEPGSKSTPPFSEPLEVGENDSLSQCFTGTQSTVGSESCNCTEPLCRTDWTPMSSENYLQKEVDSGHCPHWAASPSPNWADVCTGCRNPPGEDCEPLVGSPKRGPLPQCAYGMGLPPEEEASRTEARDQPEDGADGRLPSSARAGAGSGSSPGGQSPASGNVTGNSNSTFISSGQVMNFKGDIIVVYVSQTSQEGAAAAAEPMGRPVQEETLARRDSFAGNGPRFPDPCGGPEGLREPEKASRPVQEQGGAKA [Q9Y6Q6]
- percentage of EdU-negative (MCF7; [3]): 24 ± 1.9%
- percentage of EdU-negative (MCF7; protein concentration 0.225 µM): 25.6 ± 1.8%
- percentage of EdU-negative (hTERT-HMEC; [3]): 5.19 ± 0.68%
- percentage of EdU-negative (hTERT-HMEC; protein concentration 0.225 µM): 5.83 ± 0.025%

Sequence: MAPRGCIVAVFAIFCISRLLCSHGAPVAPMTPYLMLCQPHKRCGDKFYDPLQHCCYDDAVVPLARTQTCGNCTFRVCFEQCCPWTFMVKLINQNCDSARTSDDRLCRSVS [Q6UW32]
- percentage of EdU-negative (MCF7; [10]): 24.2 ± 1.9%
- percentage of EdU-negative (MCF7; [11]): 25.5 ± 0.59%
- percentage of EdU-negative (hTERT-HMEC; [10]): 4.73 ± 0.98%
- percentage of EdU-negative (hTERT-HMEC; [11]): 5.65 ± 1.1%

Sequence: MAPRRARGCRTLGLPALLLLLLLRPPATRGITCPPPMSVEHADIWVKSYSLYSRERYICNSGFKRKAGTSSLTECVLNKATNVAHWTTPSLKCIRDPALVHQRPAPPSTVTTAGVTPQPESLSPSGKEPAASSPSSNNTAATTAAIVPGSQLMPSKSPSTGTTEISSHESSHGTPSQTTAKNWELTASASHQPPGVYPQGHSDTTVAISTSTVLLCGLSAVSLLACYLKSRQTPPLASVEMEAMEALPVTWGTSSRDEDLENCSHHL
- percentage of EdU-negative (MCF7; [12]): 27.1 ± 0.76%
- percentage of EdU-negative (MCF7; [13]): 25.6 ± 2.6%
- percentage of EdU-negative (hTERT-HMEC; [12]): 5.18 ± 0.25%
- percentage of EdU-negative (hTERT-HMEC; [13]): 6.6 ± 0.68%
